In patent publication US20220119534A1 (DRAGONFLY THERAPEUTICS, published 2022):
Positions count from the first letter of the chain named. Names may count otherwise. One block for each binder: values may come before it.

How the values were obtained:
mFc-hNKG2D [1] = molecular target: T1, mFc-hNKG2D (human, UniProt P26718 73-216); assay: SPR Biacore 8K 37 C; mFc-hNKG2D captured on anti-mFc chip, TriNKET as analyte; steady state fit; after 2 wks 40 C at pH 8.0
T1 construct: extracellular domain; Made in house (Dragonfly Tx); the order of tag and ECD follows the name mFc-hNKG2D; also called mFc-tagged human NKG2D; not shown: mouse Fc tag
T1 sequence (looked up): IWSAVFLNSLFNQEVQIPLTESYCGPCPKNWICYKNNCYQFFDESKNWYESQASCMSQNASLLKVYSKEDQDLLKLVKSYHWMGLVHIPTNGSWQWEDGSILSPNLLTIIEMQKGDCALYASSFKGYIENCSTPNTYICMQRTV

Human CLEC12A-His [2] = molecular target: T2, Human CLEC12A-His (human, UniProt Q5QGZ9 65-265); assay: SPR Biacore 8K 37 C; TriNKET captured on anti-hFc chip, hCLEC12A-His as analyte; 1:1 fit; control sample, n=2
T2 construct: Recombinant soluble protein made in house (Dragonfly Tx); The hCLEC12A spot of the HuProt array is written under this molecule as well; also called hCLEC12A-His; hCLEC12A; not shown: His tag
T2 sequence: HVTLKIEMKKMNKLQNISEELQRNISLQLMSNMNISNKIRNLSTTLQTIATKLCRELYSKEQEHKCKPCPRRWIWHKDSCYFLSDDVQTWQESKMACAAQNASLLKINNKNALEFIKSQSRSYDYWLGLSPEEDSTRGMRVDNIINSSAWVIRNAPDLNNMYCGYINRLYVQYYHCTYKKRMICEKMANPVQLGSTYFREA

[3] = molecular target: T3, Human CD16a V158 (FcγRIIIa V158) (human, UniProt P08637 17-208, biotinylated (site not stated)); assay: SPR; biotinylated CD16a V158 captured on SA chip, TriNKET as analyte; 1:1 kinetic fit; after 4 wks 40 C in HST pH 6.0, n=3
T3 construct: V158 is the allele name in mature numbering; also called hCD16aV; hCD16a V158

[4] = molecular target: T3, Human CD16a V158 (FcγRIIIa V158); assay: SPR; biotinylated CD16a V158 captured on SA chip, TriNKET as analyte; 1:1 kinetic fit; control sample, n=3
[5] = molecular target: T4, mFc-hNKG2D (recombinant mFc-tagged human NKG2D dimer) (human, UniProt P26718 73-216); assay: SPR; control sample
T4 construct: extracellular domain; Made in house; not shown: mouse Fc tag
T4 sequence (looked up): T1 sequence (looked up)

[6] = molecular target: T5, Human CLEC12A expressed on cells (Ba/F3-hCLEC12A, PL21, HL60) (human, UniProt Q5QGZ9 1-265); assay: cell-based or functional assay
T5 sequence: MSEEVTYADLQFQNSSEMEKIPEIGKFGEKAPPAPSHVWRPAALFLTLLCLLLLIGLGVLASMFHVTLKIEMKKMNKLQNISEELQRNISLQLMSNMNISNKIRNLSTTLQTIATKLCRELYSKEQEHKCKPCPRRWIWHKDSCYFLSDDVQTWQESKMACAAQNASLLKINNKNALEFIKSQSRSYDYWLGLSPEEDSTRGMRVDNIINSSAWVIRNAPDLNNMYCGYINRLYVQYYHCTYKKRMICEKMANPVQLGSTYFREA

[7] = molecular target: T6, Human CLEC12A-His (recombinant, K244 WT) (human, UniProt Q5QGZ9 65-265); assay: SPR, two-state fit (ka1); after 4 wks 40C in HST pH 6.0
T6 construct: Made in house (Dragonfly Tx); also called hCLEC12A; hCLEC12A-His; not shown: His tag
T6 sequence: T2 sequence

Human CD16a V158 = molecular target: T7, Human CD16a V158 (human, UniProt P08637 17-208, biotinylated); assay: SPR; control sample (low pH hold study)
T7 construct: Bought recombinant receptor; also called hCD16a (V158); hFcγRIIIa V158

Human CLEC12A-His [8] = molecular target: T8, Human CLEC12A-His (human, UniProt Q5QGZ9 65-265); assay: SPR; control sample (low pH hold study)
T8 construct: Recombinant soluble protein made in house; also called hCLEC12A-His; hCLEC12A; not shown: His tag
T8 sequence: T2 sequence

mFc-hNKG2D [9] = molecular target: T9, mFc-hNKG2D (human, UniProt P26718 73-216); assay: SPR; control sample (low pH hold study)
T9 construct: extracellular domain; Recombinant mFc-tagged NKG2D dimer, made in house; also called human NKG2D; not shown: mouse Fc tag
T9 sequence (looked up): T1 sequence (looked up)

CD33 = molecular target: T10, CD33; assay: SPR specificity test; unrelated recombinant antigen at up to 500 nM
T10 construct: recombinant protein

HER2 = assay: as above
BCMA = molecular target: T11, BCMA; assay: as above
T11 chain: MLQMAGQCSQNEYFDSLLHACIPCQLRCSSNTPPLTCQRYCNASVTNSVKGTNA

human CLEC12A-K244Q-His = molecular target: T12, human CLEC12A-K244Q-His (human, UniProt Q5QGZ9 65-265); assay: SPR
T12 construct: Polymorphic variant; also called hCLEC12A-K244Q; CLEC12A (Q244)
T12 chain: T2 sequence with K180Q

T3 sequence (P08637 17-208 F176V limits assumed): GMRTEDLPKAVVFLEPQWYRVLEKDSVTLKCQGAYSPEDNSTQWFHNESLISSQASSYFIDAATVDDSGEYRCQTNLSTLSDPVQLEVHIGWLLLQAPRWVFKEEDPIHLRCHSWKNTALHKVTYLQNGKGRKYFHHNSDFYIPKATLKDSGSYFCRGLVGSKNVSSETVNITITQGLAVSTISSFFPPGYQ
T7 sequence (P08637 17-208 F176V limits assumed): as above

B1: F3'-1602 TriNKET (bispecific antibody, human IgG1, kappa)
chain: QLQLQESGPGLVKPSETLSLTCTVSGFSLTNYGLHWIRQPPGKCLEWIGVIWSGGKTDYNPSLKSRVTISKDTSKNQFSLKLSSVQAADTAVYYCAKYDYDDSLDYWGQGTLVTVSSGGGGSGGGGSGGGGSGGGGSDIQMTQSPSSLSASVGDRVTITCHASQNINFWLSWYQQKPGKAPKLLIYEASNLHTGVPSRFSGSGSGTRFTLTISSLQPEDIATYYCQQSHSYPLTFGCGTKLEIKGSDKTHTCPPCPAPELLGGPSVFLFPPKPKDTLMISRTPEVTCVVVDVSHEDPEVKFNWYVDGVEVHNAKTKPREEQYNSTYRVVSVLTVLHQDWLNGKEYKCKVSNKALPAPIEKTISKAKGQPREPRVYTLPPCRDELTKNQVSLTCLVKGFYPSDIAVEWESNGQPENNYKTTPPVLVSDGSFTLYSKLTVDKSRWQQGNVFSCSVMHEALHNHYTQKSLSLSPG
heavy: EVQLVESGGGLVKPGGSLRLSCAASGFTFSSYSMNWVRQAPGKGLEWVSSISSSSSYIYYADSVKGRFTISRDNAKNSLYLQMNSLRAEDTAVYYCARGAPIGAAAGWFDPWGQGTLVTVSSASTKGPSVFPLAPSSKSTSGGTAALGCLVKDYFPEPVTVSWNSGALTSGVHTFPAVLQSSGLYSLSSVVTVPSSSLGTQTYICNVNHKPSNTKVDKKVEPKSCDKTHTCPPCPAPELLGGPSVFLFPPKPKDTLMISRTPEVTCVVVDVSHEDPEVKFNWYVDGVEVHNAKTKPREEQYNSTYRVVSVLTVLHQDWLNGKEYKCKVSNKALPAPIEKTISKAKGQPREPQVCTLPPSRDELTENQVSLTCLVKGFYPSDIAVEWESNGQPENNYKTTPPVLDSDGSFFLYSWLTVDKSRWQQGNVFSCSVMHEALHNHYTQKSLSLSPG
light: DIQMTQSPSSVSASVGDRVTITCRASQGISSWLAWYQQKPGKAPKLLIYAASSLQSGVPSRFSGSGSGTDFTLTISSLQPEDFATYYCQQGVSFPRTFGGGTKVEIKRTVAAPSVFIFPPSDEQLKSGTASVVCLLNNFYPREAKVQWKVDNALQSGNSQESVTEQDSKDSTYSLSSTLTLSKADYEKHKVYACEVTHQGLSSPVTKSFNRGEC
notes: Trispecific F3' format: CLEC12A scFv-Fc paired with NKG2D Fab-Fc; Stressed and control samples of the stability studies are the same molecule; also called AB0237
- Kd (mFc-hNKG2D [1]): 919 nM
- Kd (Human CLEC12A-His [2]): 0.98 nM
- koff (Human CLEC12A-His [2]): 0.000735 s⁻¹
- kon (Human CLEC12A-His [2]): 750000 M⁻¹ s⁻¹
- Kd [3]: 201 nM
- koff [3]: 0.0165 s⁻¹
- kon [3]: 82400 M⁻¹ s⁻¹
- Kd [4]: 212 nM
- koff [4]: 0.024 s⁻¹
- kon [4]: 113000 M⁻¹ s⁻¹

B4: F3'-1602 TriNKET (other)
chain: B1 chain
heavy: B1 heavy
light: B1 light
notes: CLEC12A scFv-Fc, NKG2D A49MI Fab-Fc, human IgG1 Fc; also called AB0237
- Response (RU) (CD33): 0.2 RU
- Response (RU) (HER2): 0.1 RU
- Response (RU) (BCMA): 0.2 RU
- Kd (human CLEC12A-K244Q-His): 0.77 nM
- koff (human CLEC12A-K244Q-His): 0.000436 s⁻¹
- kon (human CLEC12A-K244Q-His): 565000 M⁻¹ s⁻¹

The next lines start with results.

- Kd [5]: 772 nM
- koff [5]: 0.135 s⁻¹
- kon [5]: 175000 M⁻¹ s⁻¹
- kon [7]: 7.91e+06 M⁻¹ s⁻¹
B2: AB0089 TriNKET (bispecific antibody, human IgG1, kappa)
chain: B1 chain with S53V, K56A, K71V, Y98G, D101G, S103T, R207D, I220F
heavy: B1 heavy
light: B1 light
notes: F3' format heterodimer of three chains; human IgG1 Fc with EW-RVT and Y349C/S354C mutations; also called AB0089 Lot AB0089-002; CLEC12A TriNKET AB0089
- EC50, KHYG-1-CD16aV cytotoxicity assay; after 4 wks 40C in HST pH 6.0 [6]: 0.17 nM
- EC50, KHYG-1-CD16aV cytotoxicity assay; control sample [6]: 0.16 nM

- Kd (Human CD16a V158): 178 nM
- koff (Human CD16a V158): 0.0199 s⁻¹
- kon (Human CD16a V158): 112000 M⁻¹ s⁻¹
- Kd (Human CLEC12A-His [8]): 1.83 nM
- koff (Human CLEC12A-His [8]): 0.00125 s⁻¹
- kon (Human CLEC12A-His [8]): 685000 M⁻¹ s⁻¹
- Kd (mFc-hNKG2D [9]): 779 nM
- koff (mFc-hNKG2D [9]): 0.146 s⁻¹
- kon (mFc-hNKG2D [9]): 188000 M⁻¹ s⁻¹
B3: AB0192 TriNKET (other)
chain: EVQLVESGGGVVQPGGSLRLSCAASGFTFNAFGMHWVRQAPGKCLEWVAFISSGSTSIYYANTVKGRFTISRDNSKNTLYLQMNSLRAEDTAVYYCARDGYPTGGAMDYWGQGTSVTVSSGGGGSGGGGSGGGGSGGGGSDIQMTQSPSSLSASVGDRVTITCKASQDIYNYLSWFQQKPGKAPKPLIYRANILVSGVPSRFSGSGSGQDYTFTISSLQPEDIATYYCLQFDAFPFTFGCGTKLEIKGSDKTHTCPPCPAPELLGGPSVFLFPPKPKDTLMISRTPEVTCVVVDVSHEDPEVKFNWYVDGVEVHNAKTKPREEQYNSTYRVVSVLTVLHQDWLNGKEYKCKVSNKALPAPIEKTISKAKGQPREPRVYTLPPCRDELTKNQVSLTCLVKGFYPSDIAVEWESNGQPENNYKTTPPVLVSDGSFTLYSKLTVDKSRWQQGNVFSCSVMHEALHNHYTQKSLSLSPG
heavy: B1 heavy
light: B1 light
notes: the condition stands under assay; also called AB0192 Lot AB0192-005
